Values quoted from earlier work as cited in patent US20260265800A1, “NEW FUCOSYLTRANSFERASES FOR IN VIVO SYNTHESIS OF LNFP-III” (DSM IP Assets B.V., priority 2022, published 2026).
Residue numbers refer to the chain shown, from its start.

B1: PmglB_70UTR_SD9: promoter sequence, SEQ ID NO: 20 (nucleic acid)
DNA: TGCGTCGCCATTCTGTCGCAACACGCCAGAATGCGGCGGCGATCACTAACTCAACAAATCAGGCGATGTAACCGCTTTCAATCTGTGAGTGATTTCACAGTATCTTAACAATGTGATAGCTATGATTGCACCGTGCCTACAAGCATCGTGGAGGTCCGTGACTTTCACGCATACAACAAACATTAACCAAAGGAAAAACAGCT
B2: PmglB_70UTR_SD4: promoter sequence, SEQ ID NO: 21 (nucleic acid)
DNA: B1 DNA with A191C, G192T, G193A, A194G, A195G
B3: PmglB_70UTR_SD5: promoter sequence, SEQ ID NO: 22 (nucleic acid)
DNA: B1 DNA with A191C, G192C, A195G
B4: PglpF_SD4: promoter sequence, SEQ ID NO: 23 (nucleic acid)
DNA: ATGCGCAAATGCGGCACGCCTTGCAGATTACGGTTTGCCACACTTTTCATCCTTCTCCTGGTGACATAATCCACATCAATCGAAAATGTTAATAAATTTGTTGCGCGAATGATCTAACAAACATGCATCATGTACAATCAGATGGAATAAATGGCGCGATAACGCTCATTTTATGACGAGGCACACACATTTTAAGTTCGATATTTCTCGTTTTTGCTCGTTAACGATAAGTTTACAGCATGCCTACAAGCATCGTGGAGGTCCGTGACTTTCACGCATACAACAAACATTAACCAACTAGGAAACAGCT
B5: PmglB_70UTR_SD7: promoter sequence, SEQ ID NO: 24 (nucleic acid)
DNA: B1 DNA with A191G, G192A, A194C
B6: PmglB_70UTR: promoter sequence, SEQ ID NO: 25 (nucleic acid)
DNA: B1 DNA with A191G, G193A, A194G, A195G
B7: PglpA_70UTR: promoter sequence, SEQ ID NO: 26 (nucleic acid)
DNA: GAAAACATTCATAAATTAAATGTGAATTGCCGCACACATTATTAAATAAGATTTACAAAATGTTCAAAATGACGCATGAAATCACGTTTCACTTTCGAATTATGAGCGAATATGCGCGATGCCTACAAGCATCGTGGAGGTCCGTGACTTTCACGCATACAACAAACATTAACCAAGGAGGAAACAGCT
B8: PglpT_70UTR: promoter sequence, SEQ ID NO: 27 (nucleic acid)
DNA: CCATTTAGCCATAGTAAAAACATGAATTGTTTGATTTCGCGCATATTCGCTCATAATTCGAAAGTGAAACGTGATTTCATGCGTCATTTTGAACATTTTGTAAATCTTATTTAATAATGTGTGCGGCAATTCACATTTAATTTATGAATGTTTTCTTAACATCGCGGCATGCCTACAAGCATCGTGGAGGTCCGTGACTTTCACGCATACAACAAACATTAACCAAGGAGGAAACAGCT
B9: PglpF_SD10: promoter sequence, SEQ ID NO: 29 (nucleic acid)
DNA: B4 DNA with A300G, G301A
B10: PglpF_SD5: promoter sequence, SEQ ID NO: 30 (nucleic acid)
DNA: B4 DNA with T299C, A300G, G301A
B11: PglpF_SD8: promoter sequence, SEQ ID NO: 31 (nucleic acid)
DNA: B4 DNA with C298G, T299A, A300G, G301A, G302A
B12: PmglB_16UTR: promoter sequence, SEQ ID NO: 32 (nucleic acid)
DNA: TGCGTCGCCATTCTGTCGCAACACGCCAGAATGCGGCGGCGATCACTAACTCAACAAATCAGGCGATGTAACCGCTTTCAATCTGTGAGTGATTTCACAGTATCTTAACAATGTGATAGCTATGATTGCACCGTTTTAACGTTGTAACCCGTATGTAACAGTGAATAATCACTTTTGCCGAGGTAACAGCGTCATAACAACAATTAAAGCCGTTTTCTGGAGCGTTACCGGGCATGGAAGAACGAATTTTAAAAAGTGAGCTTCGGCGTTCAGTAACACTTCATTAACTCTACTGCCCCGCCGAGCATTTATCTCAAGCACTACCCTGCATAAGCAAGGAGGAAACAGCT
B13: PglpF_SD9: promoter sequence, SEQ ID NO: 33 (nucleic acid)
DNA: B4 DNA with C298A, T299G, A300G, G301A, G302A
B14: PglpF_SD7: promoter sequence, SEQ ID NO: 34 (nucleic acid)
DNA: GCGGCACGCCTTGCAGATTACGGTTTGCCACACTTTTCATCCTTCTCCTGGTGACATAATCCACATCAATCGAAAATGTTAATAAATTTGTTGCGCGAATGATCTAACAAACATGCATCATGTACAATCAGATGGAATAAATGGCGCGATAACGCTCATTTTATGACGAGGCACACACATTTTAAGTTCGATATTTCTCGTTTTTGCTCGTTAACGATAAGTTTACAGCATGCCTACAAGCATCGTGGAGGTCCGTGACTTTCACGCATACAACAAACATTAACCAAGAGCAAAACAGCT
B15: PglpF_SD6: promoter sequence, SEQ ID NO: 35 (nucleic acid)
DNA: B4 DNA with C298G, T299A, A300G, G301C, G302T
B16: PglpA_16UTR: promoter sequence, SEQ ID NO: 36 (nucleic acid)
DNA: B7 DNA
B17: PglpF_SD3: promoter sequence, SEQ ID NO: 38 (nucleic acid)
DNA: B14 DNA with G290A
B18: PglpF_SD1: promoter sequence, SEQ ID NO: 39 (nucleic acid)
DNA: B14 DNA with G288A, A289T, G290T, A292G

System: β-galactosidase activity
Details: LacZ assay, cited from earlier work; for % Activity relative to PglpF: PglpF as positive reference, a range indicates results from multiple assays

Row | Molecule | % Activity relative to PglpF | Strength
1 | B1 | 180-226% | high (A regulatory element with an activity above 10,000 MU is considered strong)
2 | B2 | 153%-353% | high (A regulatory element with an activity above 10,000 MU is considered strong)
3 | B3 | 146-152% | high (A regulatory element with an activity above 10,000 MU is considered strong)
4 | B4 | 140-161% | high (A regulatory element with an activity above 10,000 MU is considered strong)
5 | B5 | 127-173% | high (A regulatory element with an activity above 10,000 MU is considered strong)
6 | B6 | 124-234% | high (A regulatory element with an activity above 10,000 MU is considered strong)
7 | B7 | 102-179% | high (A regulatory element with an activity above 10,000 MU is considered strong)
8 | B8 | 102-240% | high (A regulatory element with an activity above 10,000 MU is considered strong)
9 | B9 | 88-96% | high (A regulatory element with an activity above 10,000 MU is considered strong)
10 | B10 | 82-91% | high (A regulatory element with an activity above 10,000 MU is considered strong)
11 | B11 | 81-82% | high (A regulatory element with an activity above 10,000 MU is considered strong)
12 | B12 | 78-171% | high (A regulatory element with an activity above 10,000 MU is considered strong)
13 | B13 | 73-93% | middle (what is in between has intermediate strength)
14 | B14 | 47-57% | middle (what is in between has intermediate strength)
15 | B15 | 46-47% | middle (what is in between has intermediate strength)
16 | B16 | 38-64% | middle (what is in between has intermediate strength)
17 | B17 | 9% | low (a regulatory element with an activity below 3,000 MU is considered weak)
18 | B18 | 5% | low (a regulatory element with an activity below 3,000 MU is considered weak)
